Drawing on paper doi:10.1101/294439, this text covers stoichiometry N for 4 substances.

A word on the stoichiometry N: it is the number of molecules, sites or subunits per partner or assembly.

Assay in all cases: SEC
A general note: Size exclusion chromatography separates by hydrodynamic size, large species first.

For assay [1], the target named is Piper methysticum chalcone synthase (PmCHS) (kava (Piper methysticum)).
Assay [2] deals with Piper methysticum kavalactone reductase 1 (PmKLR1) (kava (Piper methysticum)).
The target in assay [3] is Piper methysticum styrylpyrone synthase 1 (PmSPS1) (kava (Piper methysticum)).
Assay [4] addresses Piper methysticum styrylpyrone synthase 2 (PmSPS2) (kava (Piper methysticum)).

In turn, “Piper methysticum chalcone synthase (PmCHS) (enzyme)” yielded a stoichiometry N in assay [1] of 2.
“Piper methysticum kavalactone reductase 1 (PmKLR1) (enzyme)” came in with a stoichiometry N in assay [2] of 2.
In the case of “Piper methysticum styrylpyrone synthase 1 (PmSPS1) (enzyme)”, the stoichiometry N in assay [3] stood at 2.
As to “Piper methysticum styrylpyrone synthase 2 (PmSPS2) (enzyme)”, the stoichiometry N in assay [4] was 2.
